The series is described as follows: soluble on expression in E. coli; label from the status in PepcDB or PDB records.
With “AAIDPNRIVALEWLPVELLLALGIVPYGVADTINYRLWVSEPPLPDSVIDVGLRTEPNLELLTEMKPSFMVWSAGYGPSPEMLARIAPGRGFNFSDGKQPLAMARKSLTEMADLLNLQSAAETHLAQYEDFIRSMKPRFVKRGARPLLLTTLIDPRHMLVFGPNSLFQEILDEYGIPNAWQGETNFWGSTAVSIDRLAAYKDVDVLCFDHDNSKDMDALMATPLWQAMPFVRAGRFQRVPAVWFYGATLSAMHFVRVLDNAIGGKA”, the “soluble on expression in E. coli” value is “soluble”. Under “MTVFTPRTDCEVAVIGAGPFGLAAASALKGAGVDALTLGGAMSFWRDHMPRGMRLRSPWHATYIGHTKGPLSLDSYAKVLGISPREPLLLENFVDYGLWIQAQAVPDLDTRKVDRVEKANGGFRLALADGNAIKARRVVVATGLMNQQLIPAVFDGIPRELVSHASEHTGYEAFRGKRVAVIGRGQSACESAVLLKRNGAEVDLVCHGDIHWLGYRALSGKQGWSLRDFLSERLASPSRVGPFPISWLVEVPGVVHRFPEPARAGLNRRSLGAGATGWLKPDFDGIEIRAGSRIISASARDNGIELRFEKDFASFDHVVLGTGYRIDIAKLGLFAPAMLAAIARREGLPLLSAGFESSIPGLHFVGASAVGSFGPLMRFTAGTPFAARTVARFIQRAKDRRYTAALEHHHHHH” stands “not soluble”; under “SLDRGEQGLLKTEPVAEEGEDAVTMLSAPEALTEEEQEELRRELTKVEEEIQTLSQVLAAKEKHLAELKRKLGISSLQEFKQNIAKGWQDVTATNAYKKTSETLSQAGQKASAAFSSVGSVITKKLEDVKNSPTFKSFEEKVENLKSKVGGAKPAGGDFGEVLNSTANATSTMTTEPPPEQMTES”, “soluble”. Regarding “MEKVVCIGCGVTIQTEDKTGLGYAPPASLTKENVICQRCFRLKNYNEIQDVSLTDDDFLNILHGIGETDSLVVKIVDIFDFNGSWINGLQRLVGGNPILLVGNKADILPKSLKRERLIQWMKREAKELGLKPVDVFLVSAGRGQGIREVIDAIEHYRNGKDVYVVGCTNVGKSTFINRIIKEVSGEEDIITTSQFPGTTLDAIEIPLDDGSSLYDTPGIINNHQMAHYVNKKDLKILSPKKELKPRTFQLNDQQTLYFGGLARFDYVSGERSPFICYMPNELMIHRTKLENADALYEKHAGELLTPPGKDEMDEFPELVAHTFTIKDKKTDIVFSGLGWVTVHDADKKVTAYAPKGVHVFVRRSLI”, the “soluble on expression in E. coli” value was “not soluble”.

As for “MGSDKIHHHHHHMTDQTAARACGIDFGTSNSTVGWLRPGHDTLLQLEDGKITLPSVVFFNYEEDHSRFGRAALAEYIDGFEGRLMRSLKSLLGSSLIDSQTEVQGKALPFRHLLKLFIQELKLRAEGAAGREFEQVVLGRPVYFVDDNPQADKLAQDTLADIARQVGFKEISFQLEPIAAAFDYESNIQKEELVLIVDIGGGTSDFTLIRLSPERRSHAERRDDILATGGVHIGGTDFDRQLSLHGVMPLFGFKTRLRNNAEMPSSQYFNLATWHTINFAYTRKAWMDLQDVHRDAAEPEKLDRLFKLIQERAGHWLAMEVEAAKIALSDRDSHRLALDAIERGLHCDLSRADFETSISALLDRVGGTVGKLLADSGLKAQDVDTVFFTGGSSGVPALRDGIRALLPNARHVEGNLFGSIGSGLAIEAKKRYG”, the “soluble on expression in E. coli” value is on record as “not soluble”. To “GDALTSPQQTKLYLSSVLRDRQREAFYILFLDNQHRVIRDEILFEGTIDAASVYPREVVKRALHHNAAAVILAHNHPSGVAEPSQADRRITDRLRDALGLVEIRVLDHFVVGDGEVVSFAERGWI” belongs “soluble”; to “QLSPDIYAKSCPNLVQIVRKQVAIALKAEIRMAASLIRLHFHDCFVNGCDASLLLDGADSEKLAIPNINSARGFEVIDTIKAAVENACPGVVSCADILTLAARDSVVLSGGPGWRVALGRKDGLVANQNSANNLPSPFEPLDAIIAKFVAVNLNITDVVALSGAHTFGQAKCAVFSNRLFNFTGAGNPDATLETSLLSNLQTVCPLGGNSNITAPLDRSTTDTFDNNYFKNLLEGKGLLSSDQILFSSDLAVNTTKKLVEAYSRSQSLFFRDFTCAMIRMGNISNGASGEVRTNCRVINN”, “soluble”. To “MYNGILPVYKERGLTSHDVVFKLRKILKTKKIGHTGTLDPEVAGVLPVCIGNATRVSDYVMDMGKAYEATVSIGRSTTTEDQTGDTLETKGVHSADFNKDDIDRLLENFKGVIEQIPPMYSSVKVNGKKLYEYARNNETVERPKRKVNIKDIGRISELDFKENECHFKIRVICGKGTYIRTLATDIGVKLGFPAHMSKLTRIESGGFVLKDSLTLEQIKELHEQDSLQNKLFPLEYGLKGLPSIKIKDSHIKKRILNGQKFNKNEFDNKIKDQIVFIDDDSEKVLAIYMVHPTKESEIKPKKVFN” belongs “soluble”; to “MGSDKIHHHHHHMMTQLSAPTLTKDPLTSQDRQIIATIVNQSDYSKECKPEDVVTIWINSDDIVWVKMTHGYARYHKQSFKRAVAEVKASLSAPVERNHKEEKELKQASEKIGLLGDCDWLSLSVQYHSDKVTGHAACYISHKARILTPLAEWDFTIPKWNMPAAICPDCDGHGCGNCGYRGTRAEDLCTPVDGYRLTYVGKTDIQTAHNVYLDGVFLGILFKVRNPDEIWENDPKTYYWQGSNGMKYWSLKEAVESFTQDVVTNKVPQVRQELAVA”, “not soluble”. Take “MGSDKIHHHHHHMSYQDGKYQTEAEGLHGPVKVATTITGGKISAVEVLVGAGEYQSKANDVIASEIIAAQSTDVDAVSGATVSSNAIMTAVKKALQEASGESQDKTSEELTTDLAIVAAGPAGLAAAVSAAEQGVKILVFEKEKITGGTANMGMGPLGINSKIQRANFNEITVAEALKNQMEYTHYRVNGRLVARLLQIVCLNYRLVGRHGSQVRRGFPLLQGIQRHLAHR”: the “soluble on expression in E. coli” value is “not soluble”. To “MSQDVNELSKQPTPDKAEDNAFFPSPYSLSQYTAPKTDFDGVEHKGAYKDGKWKVLMIAAEERYVLLENGKMFSTGNHPVEMLLPLHHLMEAGFDVDVATLSGYPVKLELWAMPTEDEAVISTYNKLKEKLKQPKKLADVIKNELGPDSDYLSVFIPGGHAAVVGISESEDVQQTLDWALDNDRFIVTLCHGPAALLSAGLNREKSPLEGYSVCVFPDSLDEGANIEIGYLPGRLKWLVADLLTKQGLKVVNDDMTGRTLKDRKLLTGDSPLASNELGKLAVNEMLNAIQNK” belongs “not soluble”; to “MGSDKIHHHHHHMALQWVKRTIKAGAALAGCVLVVTALDPARGSVDAKERVKGIVAAAAMSPAGIPFELAAQEIATIGTRPMAERLSISGELQPVNRVLIRAREAGKILEMNVREGQAVRAGDMLVRFETDELQSTLLLRQSDRDAAEAELMLAMQALARTEQLAAKNIASTEQLDKAKSDVVVKTTRVQSLSSQVDIARLALRNAEIRAPFDGTVTRRVAETGARIGADGELLTLVDTSELEAKVLVATRDIPRVARGQTAELEIDGLAGQIVKGTVERISPVAEDGTRVVAVYLRLANRDGQLWGGMFAGGSILLREKNDALVVPAIALRKDETGYHVLKIQDGHLRRQTVAVGPRWNGGSLIEIGAGLADGETILTVPLPELRPDMAVTIDKAG”, “not soluble”; to “MSAALVAQQVATLREQGFAVVRNFASPPVRQALRELALQHLAQTVDPVEYEADLKYPGAPSSRLAAGGQTVRRLLDAYGRDQRFRDWATQAAIGAFLRAYFQDTPVLSTVHHNCIMTKHPAFGSLTGWHQDIRYWSFSDDDLVSCWLALGDERADNGGLYFVPGSHTASFMPEQYDARKFFRDDLPQNQEWIGRAVCPELQAGDVVFFHCRTLHAARQNATDTVKLSLVHTYHPASCHPLPGTRSAGSPGVPLPLEHHHHHH”, “not soluble”.

On to “MAQITTTDANEFSSSAEFIPMRGFSNCHLQTMLPRLFRRQVKFTPYWQRLELPDGDFVDLAWSENPAQAQHKPRLVVFHGLEGSLNSPYAHGLVEAAQKRGWLGVVMHFRGCSGEPNRMHRIYHSGETEDASWFLRWLQREFGHAPTAAVGYSLGGNMLACLLAKEGNDLPVDAAVIVSAPFMLEACSYHMEKGFSRVYQRYLLNLLKANAARKLAAYPGTLPINLAQLKSVRRIREFDDLITARIHGYADAIDYYRQCSAMPMLNRIAKPTLIIHAKDDPFMDHQVIPKPESLPPQVEYQLTEHGGHVGFIGGTLLHPQMWLESRIPDWLTTYLEAKSCLEHHHHHH”, for which the “soluble on expression in E. coli” value is on record as “not soluble”.

“EKKYIVGFKQTMSAMSSAKKKDVISQKGGKVEKQFKYVNAAAATLDEKAVKELKKDPSVAYVEEDHIAHEY”: the “soluble on expression in E. coli” value is listed as “soluble”. To “MTARAIIIGAPRSGSGKTSVTIGLLRAFARRGVKVRGIKTGPDYIDPGFHAFATGTPGLNLDSWAMQPDLLRHLFSQQTEDAELILIESAMGLFDGIPVAENRTGSAADLARLFRIPVLLVLDVSGQSQTAATIAHGFAHYDPDVTMGAVVLNRAGSERHRTLCTEAIEKIGLPVVGCVLRDPSLILPERHLGLVQASEHPEIDPHIDRLADAMEKSIDLDTLFSLAAPVDMPCGSVAAAIAPPGQRIALAEDAAFTFLYPHLRRHWRAAGAEIVPFSPLADEAPDESCDICWLPGGYPELFAGKLADAVGFKAGITRFAETKPVHGECGGYMVLGERLEDAEGVIHAMTGLLSHATSFATRKMNLGYRQATIAADSPLGMAGDVLRGHEFHYARVIDPGRDQPFAHMADGQGRPLGPSGGRRGFVSGTFFHAIAKGGLEHHHHHH” belongs “not soluble”; to “MNNNVITRFAPSPTGFLHIGSARTALFNYLFARHHNGKFLLRIEDTDKERSTKEAVEAIFSGLKWLGLDWNGEVIFQSKRNNLYKEAALKLLQNGKAYYCFTRQEEIERQRQQALENKQHFIFNSEWRDKDPSIYPTDIKPVIRLKTPREGSITIHDTLQGEVVIENSHIDDMVLLRADGTATYMLAVVVDDHDMGITHIIRGDDHLTNTARQLAIYQAFGYAVPSMTHIPLIHGADGAKLSKRHGALGIEAYKDMGYLPESLCNYLLRLGWSHGDDEIISMTQAIDWFNLDSLGKSPSKLDFAKMNSLNAHYLRMLDNDSLTSKTVEILEQNYNTLLRHLPYREEFGGNTERSTAAYIDIREDASTGLTYKLPLAVELPKKFKISEQEIGYIKQAMPSLLVRSETLLELTRLAQIYLVDSPIIYSQDSKEIIENCDKNLIKQIIENLSELEQFDKESVQNKFKEIAAANDLKLNDIMKPVRALITGMTASPSIFEIAEILGKENILKRLKII”, “soluble”; to “DYKLFITEGYEVGRVNGLAVIGESAGIVLPIIAEVTPSMSKSEGRVIATGRLQEIAREAVMNVSAIIKKYTGRDISNMDVHIQFVGTYEGVAGDSASISIATAVISAIEGIPVDQSVAMTGSLSVKGEVLPVGGVTQKIEAAIQAGLKKVIIPKDNIDDVLLDAEHEGKIEVIPVSRINEVLEHVLEDGKKKNRLMSKFKELELAAV”, “soluble”.
